Assay [1] deals with full-length hEGFRvIII on cells (human) (UniProt P00533). Briefly: FACS, HEK293/EGFRvIII cells, directly labeled antibody. (In flow cytometry, cells or beads pass a laser one at a time.)
The target of assay [2] is wild-type human EGFR on cells (human) (UniProt P00533). The experiment in a line: FACS, A431 cells, PE secondary antibody.
Assay [3] has as its target EGFRvIII-mmh (human) (UniProt P00533). The experiment in a line: SPR coinjection; competitor (first antibody): H1H1863N2(Fuc-).
Assay [4] has the same target. The experiment in a line: SPR, captured hEGFRvIII-mmh; no first antibody. For orientation: Surface plasmon resonance follows binding to a sensor surface in real time, without labels.
Assay [5] shares this target. The experiment in a line: SPR coinjection; competitor (first antibody): Control III.
Assay [6] has as its target full-length hEGFRvIII on cells (human) (UniProt P00533). The experiment in a line: cell-based or functional assay.
In assay [7] the target is EGFRvIII-mmh (human) (UniProt P00533). The experiment in a line: SPR coinjection; competitor (first antibody): Control II.
Assay [8] addresses wild-type human EGFR on cells (human) (UniProt P00533). The experiment in a line: FACS, A431 cells, directly labeled antibody.
Assay [9] deals with EGFRvIII-mmh (human) (UniProt P00533). Briefly: SPR 37C, mAb-capture.
The target in assay [10] is EGFRvIII-mFc (human). The experiment in a line: SPR 37C, mAb-capture.
Assay [11] addresses EGFR-mFc (human). Briefly: SPR 37C, receptor-capture.
Assay [12] deals with EGFRvIII-mFc (human). Briefly: SPR 37C, receptor-capture.
Assay [13] addresses EGFRvIII-mmh (human) (UniProt P00533). The experiment in a line: SPR coinjection; competitor (first antibody): Control I.
Assay [14] has the same target. The experiment in a line: ELISA.
The target of assay [15] is EGFR-mmh (human) (UniProt P00533). The experiment in a line: ELISA.
In assay [16] the target is full-length hEGFRvIII on cells (human) (UniProt P00533). The experiment in a line: FACS, HEK293/EGFRvIII cells, PE secondary antibody.
Assay [17] has as its target N-terminal biotin-labeled EGFRvIII junctional peptide (human). The experiment in a line: ELISA.
Assay [18] concerns the target C-terminal biotin-labeled EGFRvIII junctional peptide (human). The experiment in a line: ELISA. In general terms: ELISA stands for enzyme-linked immunosorbent assay.
The target of assay [19] is EGFRvIII junctional peptide (human). The experiment in a line: ELISA.

Chain of Control III: Humanized anti-EGFRvIII antibody (hIgG1) with the variable domains of the "hu806" antibody of US 2010/0056762 (VH): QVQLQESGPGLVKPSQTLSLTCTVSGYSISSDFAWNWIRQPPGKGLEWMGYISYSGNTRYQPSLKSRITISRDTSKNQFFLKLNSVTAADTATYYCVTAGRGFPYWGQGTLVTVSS
Chain of Control III: Humanized anti-EGFRvIII antibody (hIgG1) with the variable domains of the "hu806" antibody of US 2010/0056762 (VL): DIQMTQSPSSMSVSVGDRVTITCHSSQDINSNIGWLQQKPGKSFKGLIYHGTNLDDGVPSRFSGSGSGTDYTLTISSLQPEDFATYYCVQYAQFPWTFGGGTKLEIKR

What is called Kd is a measure of binding affinity in units of concentration. A word on the koff: it is the first-order rate constant of dissociation. Read a low koff as a long-lived complex. By kon is commonly meant a measure of how fast the partners come together. Higher therefore signals faster complex formation. Usually EC50 stands for the midpoint of the concentration-response curve. A low value points to greater potency. “Control II: Chimeric anti-EGFRvIII antibody (hIgG1) with the variable domains of the "ch806" antibody of U.S. Pat. No. 7,589,180”: the HEK293/EGFRvIII MFI in [1] and in [16] was 313000 MFI in each case. Moreover, the Ratio (EGFRvIII MFI/parental MFI) came to 87.4 in [1] and 308 in assay [16]. The A431 MFI in assay [2] was found to be 5580 MFI; in assay [8] it was 15700 MFI. For the same substance, the Fold Above Background in [2] amounted to 3.9 fold; in [8], 2.3 fold. Moreover, the Second Antibody Binding Response (RU) amounted to 191 RU in assay [3]; 247 RU in assay [4]; 13 RU in assay [5]; 6 RU in [7]; 258 RU in [13]. In [6], the Fluorescent Intensity of vesicles 4° C., Mean was determined as 20300. In assay [6], this substance returned a Fluorescent Intensity of vesicles 37° C., Mean of 615000. In addition, the Kd was 150 nM in [9], 2.02 nM in assay [10], 0.329 nM in assay [11] and 0.059 nM in assay [12]. Further, the T½ in assay [9] was 2 min; in assay [10] it was 28 min; in assay [11] it was 79 min; in assay [12] it was 2.63 h. The koff in assay [9] was 0.00733 s⁻¹; in assay [10], 0.000408 s⁻¹; in assay [11], 0.000146 s⁻¹; in assay [12], 7.31e-05 s⁻¹. For the same substance, the kon in [9] was 49000 M⁻¹ s⁻¹; in [10], 202000 M⁻¹ s⁻¹; in assay [11], 444000 M⁻¹ s⁻¹; in [12], 1.25e+06 M⁻¹ s⁻¹. Moreover, the figures for the EC50 in assay [14] and in assay [15] were 0.0057 nM and 0.0095 nM, respectively.
Take “Control I: Human anti-EGFRvIII antibody (IgG1) with the variable domains of the "13.1.2" antibody of U.S. Pat. No. 7,736,644”: the HEK293/EGFRvIII MFI in assay [1] is 258000 MFI; in [16], 272000 MFI. The figures for the A431 MFI in assay [2] and in [8] were 1450 MFI and 9650 MFI, respectively. Also, the Second Antibody Binding Response (RU) in [3] is 253 RU; in [4], 234 RU; in assay [5], 254 RU; in assay [7], 252 RU; in [13], 5 RU. Moreover, the Fluorescent Intensity of vesicles 4° C., Mean in assay [6] was found to be 22000. The Fluorescent Intensity of vesicles 37° C., Mean in [6] was determined as 264000. Also, the Kd in [9] was found to be 1190 nM; in [10] it was 103 nM; in assay [12], 9.06 nM. In addition, the T½ in [9] is 0.1 min; in assay [10], 1.6 min; in assay [12], 0.0483 h. Also, the EC50 in assay [17] turned out to be 0.0106 nM; in assay [18], 0.0153 nM; in [14] it was 0.0094 nM; in assay [19] it was 0.118 nM.
In the case of “Control III: Humanized anti-EGFRvIII antibody (hIgG1) with the variable domains of the "hu806" antibody of US 2010/0056762”, the Kd in assay [10] stood at 1.18 nM; in assay [11], 0.215 nM; in assay [12] it was 0.00067 nM. Also, the T½ was determined as 39 min in assay [10], 187 min in assay [11] and 192 h in assay [12].
In [2], “Control V: Human anti-EGFRvIII antibody (IgG1) with the variable domains of the "131" antibody of U.S. Pat. No. 7,736,644 B2” registered an A431 MFI of 4240 MFI and a Fold Above Background of 3 fold. In assay [9], this substance had a Kd of 82 nM, a T½ of 1 min, a koff of 0.0159 s⁻¹ and a kon of 194000 M⁻¹ s⁻¹. In assay [10], this substance had a Kd of 1.95 nM, a T½ of 31 min, a koff of 0.000371 s⁻¹ and an on-rate constant (kon) of 191000 M⁻¹ s⁻¹. Besides, in assay [16], the HEK293/EGFRvIII MFI is 997000 MFI and the Ratio (EGFRvIII MFI/parental MFI) amounted to 85.

These data come from patent US20160304615A1.
